Results taken from the RNAGym collection of RNA variant scans (doi:10.7554/elife.90254).

B1: LINE1-mini (parent)
chain: GGCAGAGCUCAACACAGCGUGGCAAAGUGGCUGUGGCUAGACUGCC

Variants of: B1
Experiment: self-cleavage, relative activity (ratio to wild type); higher = more cleavage; in vitro, sequencing; the parent is a self-cleaving ribozyme

| Variant | self-cleavage |
| --- | --- |
| GGCAGAGCUCCACACAGCGUGGCAAAGUGGCUGUGGCUAGACUGCA | 0.03 |
| GGCAGAGCUCAACACACCGUGGCAAAGUGGCUGUCGCUAGACUGCC | 0.04 |
| GGCAGAUCUCAACACAGCGUCGCAAAGUGGCUGUGGCUAGACUGCC | 0.08 |
| GGCAGAUCUCAACACAGCGUGGCAAAGUGGCUGUGGCGAGACUGCC | 0.03 |
| GACAGAGCUCAACACAGCGUGGCAAAGUGGCUGUGGCUAGACUCCC | 0.56 |
| GGCAGAGCCCAACACAGCGUGGCAAAGUGGCUGUGGCUAGACGGCC | 0.01 |
| GGCAGAGCUCAACACAGCGUGGCAAAGUGGUUCUGGCUAGACUGCC | 0.15 |
| GGCAGAGCGCAACACAGCGUCGCAAAGUGGCUGUGGCUAGACUGCC | 0.08 |
| GGCAGAGCUCAACACAGCGUGUCAAACUGGCUGUGGCUAGACUGCC | 0.57 |
| UCCAGAGCUCAACACAGCGUGGCAAAGUGGCUGUGGCUAGACUGCC | 0.16 |
| GGGAGAGCUCAACACAGCGUGGCAAACUGGCUGUGGCUAGACUGCC | 0.13 |
| GGCAGAGCUCAACACAGCGUGGCGAAGUGGUUGUGGCUAGACUGCC | 0.29 |
| GGCAGAGCUCAACACAGCGUGGCAAAGUGGCUGUAGCUAGGCUGCC | 0.05 |
| GGCAGAGCUCAACACAGCGUGGCAAAGAGGCUGAGGCUAGACUGCC | 0.44 |
| GGCAGAGCUCAACACAGCGUGGCAAAGUGGCUGUGGCGCGACUGCC | 0.1 |
| GGCAGAGCUCAACACAGCGUGGCAAAGCGGCUGUGGCUAGACUGGC | 0.44 |
| GGCAGAGCUCAACACAGCGUGGCAAAGUGGCUGUCGCUAGCCUGCC | 0.06 |
| GGCAGAGCUCAACACAGCGUGGCAAAGUGGCUUCGGCUAGACUGCC | 0.23 |
| GGCAGAGCUCAACACAGCGUGGCAAACCGGCUGUGGCUAGACUGCC | 1.12 |

| Variant | self-cleavage |
| --- | --- |
| GGCACAGCUCAACACAGCGUGGCAAAGUGGCUGGGGCUAGACUGCC | 0.06 |
| GGCAGAGCUCAACACAGCGUGGCAAAGUGGUAGUGGCUAGACUGCC | 0.09 |
| GGCAGAGCUCAACACAGCGUGGAAAAGUGGCUGUGGCUAGACAGCC | 0.1 |
| GGCAGAGCUCAACACAGCUUGGCAAAGUGGCUGUGGGUAGACUGCC | 0.02 |
| GGCAGAGAUCAACACAGCGUGCCAAAGUGGCUGUGGCUAGACUGCC | 0.17 |
| GGCAGAGAUCAACACAGCGUGGCAAAGUGGCUGUGGCUAGAAUGCC | 0.29 |
| GGCAGAGCUCAACACAACGUGGCAAAGUGGCUGUGGCUAGAAUGCC | 0.07 |
| GCCAGAGCUCAGCACAGCGUGGCAAAGUGGCUGUGGCUAGACUGCC | 0.07 |
| GGCAGAGUUCAACCCAGCGUGGCAAAGUGGCUGUGGCUAGACUGCC | 0.15 |
| GGCAGACCUCAACACAGCGUGGCAAAGUGGCUGUGCCUAGACUGCC | 0.1 |
| GGCAGAGCUCAACACAGCGUGGCAAAGGGGCUGUGCCUAGACUGCC | 0.05 |
| GGCAGAGCUCAACACAGCGUGGCGAAGUGGCUGUGGCUGGACUGCC | 0.07 |
| GGCAGAGCUCAAGACAGUGUGGCAAAGUGGCUGUGGCUAGACUGCC | 0.09 |
| GGCAGAGCUCAACAUAGCGUGGCAAAGUGGCUGUAGCUAGACUGCC | 0.09 |
| GGCGGAGUUCAACACAGCGUGGCAAAGUGGCUGUGGCUAGACUGCC | 0.24 |
| GGCAGAUCUCGACACAGCGUGGCAAAGUGGCUGUGGCUAGACUGCC | 0.03 |
| GUCAGAGCUCAACACAGCGUGGCAAAGUGGAUGUGGCUAGACUGCC | 0.04 |
| GGCAGAGCUCAACACCGCGUGGCAAAGUGGCUUUGGCUAGACUGCC | 0.05 |
| GGCAAAGCUCAACACAGCGUGGCAAAGUGGCUGUGGCUUGACUGCC | 0.1 |

| Variant | self-cleavage |
| --- | --- |
| GGCAGAGCUCAACACAUCGUGGCAAUGUGGCUGUGGCUAGACUGCC | 0.04 |
| CGCAGAGCUCAACACAGCGCGGCAAAGUGGCUGUGGCUAGACUGCC | 0.04 |
| GGCAGAGCUCAACACUGUGUGGCAAAGUGGCUGUGGCUAGACUGCC | 0.07 |
| GGUAGAGCUCAACACCGCGUGGCAAAGUGGCUGUGGCUAGACUGCC | 0.09 |
| CGCAGAGCUCAACACAGCGUGGCAAAGUGGCUGUGGCUAGUCUGCC | 0.1 |
| GGGAGAGCUCAACACAGCGUGGCAAAGGGGCUGUGGCUAGACUGCC | 0.19 |
| AGCAGAGCUCAACACAGCGUGGCAGAGUGGCUGUGGCUAGACUGCC | 0.39 |
| GGCAGAGCUCAACACAGCGUGGCAAAGUGGCUGAGGCUAGACUGCG | 0.08 |
| GGCAGAGCUCAACACAGCGUGCCAAAGUGGCAGUGGCUAGACUGCC | 0.04 |
| GGCAGAGCUCUACAUAGCGUGGCAAAGUGGCUGUGGCUAGACUGCC | 0.17 |
| GGCAGAGCUCAACACAGUGUGCCAAAGUGGCUGUGGCUAGACUGCC | 1.47 |
| GGCAGAUCUCAGCACAGCGUGGCAAAGUGGCUGUGGCUAGACUGCC | 0.04 |
| GGCAGAGCGCAACACAGCGUGGCAAAGUGGCUGUGGCUAGGCUGCC | 0.08 |
| GGCAGAGCUCACCACAGCGUGGCAAAGUGGUUGUGGCUAGACUGCC | 0.02 |
| GGCAGAGCUCAUCACAGCGUGGCAAAGUGGCUGUUGCUAGACUGCC | 0.13 |
| GGCAGAGCUCAACACAGCGUCGCAAAGUGGCUGUGGCUGGACUGCC | 0.05 |
| GGCAGAGCUCAACACAGCGUGGCAAAGUAGCUGUGGCGAGACUGCC | 0.01 |
| GGCAGAGCUCAACAUAGCAUGGCAAAGUGGCUGUGGCUAGACUGCC | 0.98 |
